Laboratory results reported in the supplement of paper PMC12764529.
± gives the half width of the 95% confidence interval.

Tests used:
[1] = folding stability dG unfold from trypsin proteolysis; higher = more stable
In short: (§1)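 Only designs with AlphaFold2 dimer inter-PAE above 15 were retained; each was a mini-protein under 80 residues with no cysteine, in a PA-tagged cDNA display construct. After digestion with trypsin and chymotrypsin and sequencing, K50 was inferred by Bayesian fitting of counts, and unfolding free energy was derived per protease or combined against a sequence-predicted unfolded-state K50 and a shared folded-state K50.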

[2] = folding stability dG unfold from chymotrypsin proteolysis; higher = more stable
In short: as §1

[3] = folding stability dG unfold (combined trypsin and chymotrypsin); higher = more stable
In short: as §1

Row | Sequence | folding stability dG unfold [1] [kcal/mol] | folding stability dG unfold [2] [kcal/mol] | folding stability dG unfold [3] [kcal/mol]
1 | SAGGSAGGSAGKEKEIIIKVKVTKDKNGKYKIDIEELKKLFPNVKITEIKDNYIKIKVKKSAGGSAGGSAGG [r11_771_TrROS_Hall] | 1.63 ± 0.1 | 2.11 ± 0.13 | 1.75 ± 0.31
2 | SAGGSAGGSAGGKKIIIVVPKEEMTEEELKKLIEELPPGEEIEIEIIVVPPPPPPPKEKKSAGGSAGGSAGG [r7_979_TrROS_Hall] | 0.385 ± 0.077 | 1.92 ± 0.23 | 1.45 ± 0.27
3 | SAGGSAGGSAGGSAKSPNGDELPPGQPVEEHTIRPPVKPTITIKMYADPDAGKMKFELFSAGGSAGGSAGGS [r4_13_TrROS] | 0.225 ± 0.24 | 0.446 ± 0.31 | 0.533 ± 0.6
4 | SAGGSAGGSAGGPVLVKLSVSKPPGDKVIVTLSFYNPETKEVFTITVPLDFLKNIKPLFSAGGSAGGSAGGS [r10_1077_TrMRF] | 2.61 ± 0.11 | 2.87 ± 0.13 | 2.83 ± 0.2
5 | SAGGMKTVTIEYWGSLPDAVVLAKKAVEEAAKNKGKTVVTLYVWEGEPDENGVPRWKPLGKYVFVVDASAGG [r13_974_TrMRF] | 2.44 ± 0.092 | 3.477 ± 0.034 | 3.19 ± 0.1
6 | SAGGSAGGSAGPPNIKMEPETRTYVLPGGWAIRVSIMKIKPPDGKPLIMAMEEIIPPDDPSAGGSAGGSAGG [r17_312_TrROS] | 0.958 ± 0.1 | 1.27 ± 0.23 | 1.27 ± 0.31
7 | SAMITVPFTFPAEKAEEILEDPELKELLEKLEKELGAKVVKIEVSPETVPSGSKTTEYVKFTFTIEKKGSAG [r14_819_JUSTAS] | 1.2 ± 0.032 | 1.8 ± 0.16 | 1.55 ± 0.16
8 | SPSPAAKNMKPIRIRLRDPNGKKYKIENINVGPDGQFQIRIKFPGNTHTQTLPPGAPFELPPDRIEEVEISA [r9_993_TrROS] | 0.808 ± 0.079 | 0.971 ± 0.2 | 0.959 ± 0.092
9 | SAGMDIIKELLEKNPKPKVIRMHMNPPNGYFRIQVNGKPIDLPLPPGHYEMEFVVDPKGKIEDVKPHPMSAG [r5_329_TrROS] | 0.0656 ± 0.15 | 0.51 ± 0.16 | 0.462 ± 0.16
10 | SAGGSAGGSAGNIMILNKDGKIIAEIKIEEKYEIDKDGKIKKTKKIEIKIVPVPPGEKIKSAGGSAGGSAGG [r17_480_TrROS_Hall] | 0.867 ± 0.056 | 1.94 ± 0.11 | 1.25 ± 0.29
11 | SAGGPPFKIKEINIQYNPDAGYVTMTFTFDDGATVEAMISPEEGRIPGKVEVPGKEIEHEFEIPVPPSAGGS [r8_363_TrROS] | 1.4 ± 0.041 | 1.5 ± 0.099 | 1.38 ± 0.19
12 | SAGGSAGGSMTIPILFPIPPGQPPGMEITFRFPGYKIEIEILEVDPENGWIAFMIELTDPGDDSAGGSAGGS [r12_1039_TrROS] | 3.13 ± 0.093 | 4.36 ± 0.095 | 3.92 ± 0.11
13 | SAGGSAMKIELENAKILDIKPTPDGKKVIFIELPSGKIIAVYEDNKVAVRSKKDPSVKPEDADPVFSAGGSA [r15_692_TrMRF] | 0.374 ± 0.07 | 1.17 ± 0.046 | 0.892 ± 0.11
14 | SAGGGIVEKIKKIIKEAGYKAKVEESEDGIHIVVEAPIEAGKVLEKKIKEATGKEIKIEYVPPGKGASAGGS [r16_514_TrMRF] | 2.21 ± 0.19 | 3.54 ± 0.25 | 3.25 ± 0.16
15 | SAGGKTYTIVLPIPPNVPLEEYIKKIEKLLKKLKKNVPISFNKQKKLPNGYYLINFTLTDNKVTGFGSAGGS [r8_7_TrMRF] | 1.06 ± 0.059 | 1.91 ± 0.12 | 1.72 ± 0.18
16 | SGSVELSFDPSKPYKVKITATAPKDGTPYEVSGTTDPATGTITLPIRRPGSGEPLPPEELEFEIEVSPPESA [r9_928_JUSTAS] | -0.244 ± 0.071 | 0.342 ± 0.12 | 0.167 ± 0.066
17 | EVETYPDGTVVTTLPPEVTADIPADEPVNLRTLIFDPDGYLYLSTATRTPDGTVTYTVSITPIPVGPELLLS [r1_394_JUSTAS] | 1.44 ± 0.029 | 1.63 ± 0.083 | 1.54 ± 0.077
18 | SAGGKIEEILKKLNLKPGEKAKIKDIKIEVKTVTVTEKKYKNGKLVEEKEKTVTVVKIEIKIELEKPKSAGG [r13_482_TrROS_Hall] | 2.6 ± 0.18 | 3.97 ± 0.18 | 3.22 ± 0.26
19 | SAGGVIELPNAGLPEFLAFLKEAAEKGIPNVTVILTGPSKPYLAIYDPKKNIVTVLHPNGKTYTFKASAGGS [r16_481_TrMRF] | 2.76 ± 0.15 | 2.99 ± 0.058 | 2.91 ± 0.12
20 | SMPLSEEEARALAEALAAEVAAAAAAAGVAGVEVPVEISRTEEGGWTITLTVTLHAGAAPVGVRPVVVEVAS [r1_364_JUSTAS] | 1.19 ± 0.027 | 1.81 ± 0.026 | 1.59 ± 0.081
21 | SAGGSAGGPVIEIEMPKNGFFRVKIWNPGNGKKQEYWIPPDEPDALKSLLDPGIDRVEIEPYPPSAGGSAGG [r6_640_TrROS] | -0.000886 ± 0.15 | 1.04 ± 0.1 | 0.671 ± 0.082
